The results in this text go back to IntAct's records for PubMed 15319482.

The labels stand for the following.
B1: Protein BRASSINOSTEROID … 1 (Arabidopsis thaliana (Mouse-ear cress)), O22476 (parent)
chain: MKTFSSFFLSVTTLFFFSFFSLSFQASPSQSLYREIHQLISFKDVLPDKNLLPDWSSNKNPCTFDGVTCRDDKVTSIDLSSKPLNVGFSAVSSSLLSLTGLESLFLSNSHINGSVSGFKCSASLTSLDLSRNSLSGPVTTLTSLGSCSGLKFLNVSSNTLDFPGKVSGGLKLNSLEVLDLSANSISGANVVGWVLSDGCGELKHLAISGNKISGDVDVSRCVNLEFLDVSSNNFSTGIPFLGDCSALQHLDISGNKLSGDFSRAISTCTELKLLNISSNQFVGPIPPLPLKSLQYLSLAENKFTGEIPDFLSGACDTLTGLDLSGNHFYGAVPPFFGSCSLLESLALSSNNFSGELPMDTLLKMRGLKVLDLSFNEFSGELPESLTNLSASLLTLDLSSNNFSGPILPNLCQNPKNTLQELYLQNNGFTGKIPPTLSNCSELVSLHLSFNYLSGTIPSSLGSLSKLRDLKLWLNMLEGEIPQELMYVKTLETLILDFNDLTGEIPSGLSNCTNLNWISLSNNRLTGEIPKWIGRLENLAILKLSNNSFSGNIPAELGDCRSLIWLDLNTNLFNGTIPAAMFKQSGKIAANFIAGKRYVYIKNDGMKKECHGAGNLLEFQGIRSEQLNRLSTRNPCNITSRVYGGHTSPTFDNNGSMMFLDMSYNMLSGYIPKEIGSMPYLFILNLGHNDISGSIPDEVGDLRGLNILDLSSNKLDGRIPQAMSALTMLTEIDLSNNNLSGPIPEMGQFETFPPAKFLNNPGLCGYPLPRCDPSNADGYAHHQRSHGRRPASLAGSVAMGLLFSFVCIFGLILVGREMRKRRRKKEAELEMYAEGHGNSGDRTANNTNWKLTGVKEALSINLAAFEKPLRKLTFADLLQATNGFHNDSLIGSGGFGDVYKAILKDGSAVAIKKLIHVSGQGDREFMAEMETIGKIKHRNLVPLLGYCKVGDERLLVYEFMKYGSLEDVLHDPKKAGVKLNWSTRRKIAIGSARGLAFLHHNCSPHIIHRDMKSSNVLLDENLEARVSDFGMARLMSAMDTHLSVSTLAGTPGYVPPEYYQSFRCSTKGDVYSYGVVLLELLTGKRPTDSPDFGDNNLVGWVKQHAKLRISDVFDPELMKEDPALEIELLQHLKVAVACLDDRAWRRPTMVQVMAMFKEIQAGSGIDSQSTIRSIEDGGFSTIEMVDMSIKEVPEGKL
partner: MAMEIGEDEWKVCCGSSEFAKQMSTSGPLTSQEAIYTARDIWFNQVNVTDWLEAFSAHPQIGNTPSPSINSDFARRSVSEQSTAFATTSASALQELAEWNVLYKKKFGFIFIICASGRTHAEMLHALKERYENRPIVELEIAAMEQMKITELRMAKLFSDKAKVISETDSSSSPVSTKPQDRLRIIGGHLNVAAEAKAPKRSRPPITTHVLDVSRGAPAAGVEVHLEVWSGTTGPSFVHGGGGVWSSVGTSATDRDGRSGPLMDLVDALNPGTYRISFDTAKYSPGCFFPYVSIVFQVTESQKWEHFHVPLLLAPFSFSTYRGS

Test [1] covers variants of B1. Conditions: with tthl_arath TTL.
In test [2] the parent is B1. To be noted: with tthl_arath TTL. This is another data set of the same source.

For the variant E1078K, the “effect of a mutation on the interaction” value with tthl_arath TTL, Q9LVM5 [1] is “decreasing interaction”; with tthl_arath TTL, Q9LVM5 [2], “disrupting interaction”.

For A1031T, the “effect of a mutation on the interaction” value with tthl_arath TTL, Q9LVM5 [2] was “disrupting interaction”.

Take G1048D: the “effect of a mutation on the interaction” value with tthl_arath TTL, Q9LVM5 [1] is given as “decreasing interaction”; with tthl_arath TTL, Q9LVM5 [2], “disrupting interaction”.
